In the RNAGym collection of RNA variant scans (doi:10.7554/elife.80360):

B1: CPEB3 Ribozyme (parent)
chain: GGGGGCCACAGCAGAAGCGUUCACGUCGCGGCCCCUGUCAGAUUCUGGUGAAUCUGCGAAUUCUGCUGU

Variants of: B1
Experiment: self-cleavage, relative activity (ratio to wild type); higher = more cleavage; co-transcriptional
A15C U67G showed a self-cleavage of 0.934. With A15C C34A the self-cleavage was 0.394. Work on A15C U55A yielded a self-cleavage of 0.435. Work on A15C U55C yielded a self-cleavage of 0.545. A15C U43C showed a self-cleavage of 0.754. With A15C U64G the self-cleavage was 0.91. A15C U64C showed a self-cleavage of 0.958. For A15C U64A, the self-cleavage was 0.952. Variant A15C C66U has a self-cleavage of 0.725. A15C C66A showed a self-cleavage of 0.357. In the case of A15G C66U, the self-cleavage is reported as 0.964. For A15G C66A, the self-cleavage was 0.828. A15C A42U showed a self-cleavage of 0.618. A15C A42G showed a self-cleavage of 0.678. A15C A42C gave a self-cleavage of 0.602. Work on A15G A51C yielded a self-cleavage of 0.993. With A15G G17U the self-cleavage was 0.424. A15G G17A gave a self-cleavage of 0.312. Work on A15C A40G yielded a self-cleavage of 0.626. Variant A15C A40C has a self-cleavage of 0.137. Variant A15G C39A has a self-cleavage of 0.833. A15C G47U gave a self-cleavage of 0.916. A15G C18G showed a self-cleavage of 0.198. Variant A15G C18A has a self-cleavage of 0.192. Variant A15G C18U has a self-cleavage of 0.792. Variant A15C U44G has a self-cleavage of 0.739. A15C U44C gave a self-cleavage of 0.659. Work on A15C U44A yielded a self-cleavage of 0.662. Work on A15C G28C yielded a self-cleavage of 0.146. In the case of A15C G28A, the self-cleavage is reported as 0.138. In the case of A15C G28U, the self-cleavage is reported as 0.191. Variant A15C U61A has a self-cleavage of 0.468. Work on A15C U61G yielded a self-cleavage of 0.723. A15C U61C gave a self-cleavage of 0.356. With A15C G41C the self-cleavage was 0.215. Variant A15C G41A has a self-cleavage of 0.289. With A15C U69C the self-cleavage was 0.978. Variant A15C G31C has a self-cleavage of 0.27. Work on A15C G31A yielded a self-cleavage of 0.456. A15C C32G gave a self-cleavage of 0.153. Variant A15C C32A has a self-cleavage of 0.302. Work on A15C G50A yielded a self-cleavage of 0.933. Variant A15C G50C has a self-cleavage of 0.808. With A15C C22U the self-cleavage was 0.2. For A15C A52G, the self-cleavage was 0.98. With A15G G19A the self-cleavage was 0.216. A15G G19C gave a self-cleavage of 0.15. Variant A15C C57U has a self-cleavage of 0.423. With A15C C29U the self-cleavage was 0.122. A15C C29G gave a self-cleavage of 0.163. Work on A15C U21C yielded a self-cleavage of 0.51. With A15C U21A the self-cleavage was 0.791. In the case of A15C G56A, the self-cleavage is reported as 0.651. A15C G56U showed a self-cleavage of 0.626. Variant A15C A16U has a self-cleavage of 0.49. In the case of A15C A16G, the self-cleavage is reported as 0.142. A15C A16C gave a self-cleavage of 0.111. Work on A15G A40G yielded a self-cleavage of 0.996. G14U U53C showed a self-cleavage of 0.33. In the case of G14U U53G, the self-cleavage is reported as 0.439. Work on A15C C63G yielded a self-cleavage of 0.921. Variant A15G C63G has a self-cleavage of 0.674. For A15G C63U, the self-cleavage was 0.947. A15G C63A showed a self-cleavage of 0.799. A15C C24U showed a self-cleavage of 0.27. A15C C24A showed a self-cleavage of 0.273. A15C U36C showed a self-cleavage of 0.487. A15C U36A showed a self-cleavage of 0.288. A15C U36G gave a self-cleavage of 0.214. In the case of A15G C22U, the self-cleavage is reported as 0.287. For G14U U62G, the self-cleavage was 0.513. G14U U62C showed a self-cleavage of 0.364. Variant A15C has a self-cleavage of 0.923. A15G showed a self-cleavage of 1. A15C C35A gave a self-cleavage of 0.229. With A15C C35G the self-cleavage was 0.285. A15C G65A showed a self-cleavage of 0.43. A15C C39U gave a self-cleavage of 0.535. For A15C C39G, the self-cleavage was 0.596. For A15G C34G, the self-cleavage was 0.665. Variant A15G C34U has a self-cleavage of 1.01. A15G C34A gave a self-cleavage of 0.764. Variant A15C G30A has a self-cleavage of 0.392.
